Laboratory results from article PMC3215713, “Probing the Limits of Aptamer Affinity with a Microfluidic SELEX Platform”.

B1: PDGF-09 (ssDNA)
DNA: AGCAGCACAGAGGTCAGATGGAATCATGATCCCCCATGACCTGGGGGCGTTACTGGCGAGCATCATGAGAGATCGTGCGACCTATGCGTGCTACCGTGAA
B2: ApoE-06 (Ahmad 2011) (ssDNA)
DNA: AGCAGCACAGAGGTCAGATGACTAGCTACGGGGTGGGTGGGCGGTGTCAGTTTGTTTATTGGTGCTATACATCCTCTATACCTATGCGTGCTACCGTGAA
B3: Thr-08 (ssDNA)
DNA: AGCAGCACAGAGGTCAGATGCAGCGCTAGGGCTTTTAGCGTAATGGGTAGGGTGGTGCGGTGCAGATATCGGAATTGGTGCCTATGCGTGCTACCGTGAA

How the values were obtained:
Bovine serum albumin [1] = molecular target: T1, Bovine serum albumin (Bos taurus (Bovine), UniProt P02769 25-607); experiment: pulldown; PBS pH 7.4, 1 mM MgCl2, 0.025% Tween 20, RT; conditions: label: 5'-Alexa Fluor 488
T1 sequence (P02769 25-607): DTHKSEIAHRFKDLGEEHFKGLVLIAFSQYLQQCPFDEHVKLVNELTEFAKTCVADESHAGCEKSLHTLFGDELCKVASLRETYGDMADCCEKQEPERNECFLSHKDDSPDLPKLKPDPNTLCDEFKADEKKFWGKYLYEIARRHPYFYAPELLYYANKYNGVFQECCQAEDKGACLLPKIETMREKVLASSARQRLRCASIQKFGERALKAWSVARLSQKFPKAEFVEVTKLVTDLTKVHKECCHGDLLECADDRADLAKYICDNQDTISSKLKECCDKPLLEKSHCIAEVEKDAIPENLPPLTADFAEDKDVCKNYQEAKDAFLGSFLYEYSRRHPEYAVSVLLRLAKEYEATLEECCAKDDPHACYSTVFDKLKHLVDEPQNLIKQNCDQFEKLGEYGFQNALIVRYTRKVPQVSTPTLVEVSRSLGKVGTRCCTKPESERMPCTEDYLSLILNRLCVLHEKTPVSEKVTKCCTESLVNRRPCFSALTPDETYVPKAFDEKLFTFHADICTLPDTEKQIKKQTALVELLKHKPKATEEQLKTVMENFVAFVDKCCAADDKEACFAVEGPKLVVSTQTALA

Bovine serum albumin [2] = molecular target: T1, Bovine serum albumin; experiment: pulldown; 50 mM Tris pH 7.5, 100 mM NaCl, 1 mM MgCl2, 5 mM KCl, 1 mM CaCl2, 0.025% Tween 20, RT; conditions: label: 5'-Alexa Fluor 488
thrombin = thrombin (UniProt P00734;P00734 315-363;364-622); experiment: bead-based fluorescence; PDGF-BB and ApoE: PBS pH 7.4, 1 mM MgCl2, 0.025% Tween 20; thrombin: 50 mM Tris pH 7.5, 100 mM NaCl, 1 mM MgCl2, 5 mM KCl, 1 mM CaCl2, 0.025% Tween 20; 1 h, roo
[3] = molecular target: PDGF-BB (platelet-derived growth factor BB) (UniProt P01127 82-190); experiment: bead-based fluorescence; PDGF-BB and ApoE: PBS pH 7.4, 1 mM MgCl2, 0.025% Tween 20; thrombin: 50 mM Tris pH 7.5, 100 mM NaCl, 1 mM MgCl2, 5 mM KCl, 1 mM CaCl2, 0.025% Tween 20; 1 h, room temperature; conditions: protein: commercial; chain copies: 2; label: 5'-FAM
Sequence of PDGF-BB (platelet-derived growth factor BB) (P01127 82-190): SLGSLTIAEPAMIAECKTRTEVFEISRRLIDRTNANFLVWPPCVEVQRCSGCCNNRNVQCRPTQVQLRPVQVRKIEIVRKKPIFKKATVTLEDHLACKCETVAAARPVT

| Binder | binding result (Bovine serum albumin [1]) | Kd (thrombin) [nM] | further results |
| --- | --- | --- | --- |
| B1 | no binding | – | – |
| B2 | no binding | – | – |
| B3 | – | – | binding result (Bovine serum albumin [2]): no binding |
| AGTCCGTGGTAGGGCAGGTTGGGGTGACT (ssDNA) [Tasset thrombin aptamer 60-18[29]] | – | 11.9 | – |
| CACAGGCTACGGCACGTAGAGCATCACCATGATCCTGTG (ssDNA) [Green PDGF aptamer 36t] | – | – | Kd [3]: 0.12 nM |
| GGTTGGTGTGGTTGG (ssDNA) [Bock thrombin aptamer (consensus 15-mer)] | – | 1.2 | – |
